Laboratory results as given in the supplement of paper PMC10724198.
± gives the standard deviation of the averaged measurements.

Legend:
Saccharomyces cerevisiae [1] = assay: protein stability index of tFT-peptide fusion (C-terminal peptide) (PSI (0-1 scale)); higher = more stable (slower turnover)
Description: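 MPS profiling in S. cerevisiae of the tFT-X12 degron library: putative degron peptides plus stable controls, 12 aa, fused to the C-terminus of a sfGFP-mCherry timer. Cells are FACS-sorted into 8 mCherry/sfGFP bins and deep-sequenced. PSI runs from 0 (unstable) to 1 (stable). Backgrounds are wild type, das1Δ and doa10Δ at 30 °C, and wild type, das1Δ, cdc34-1 and cdc53-1 at 37 °C; 2-3 technical replicates each.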

Saccharomyces cerevisiae [2] = assay: as above; settings: genetic background: wild type; temperature: 30 C
[3] = genetic background: cdc34-1, temperature: 37 C
[4] = genetic background: cdc53-1, temperature: 37 C
[5] = genetic background: das1 deletion, temperature: 30 C
[6] = genetic background: das1 deletion, temperature: 37 C
[7] = genetic background: doa10 deletion, temperature: 30 C
[8] = genetic background: wild type, temperature: 30 C
[9] = genetic background: wild type, temperature: 37 C
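Note: PSI is a weighted mean of sequencing reads over stability bins, variants kept only with over 10 reads, mCherry proximal and sfGFP distal, peptide attached via GGGS linker.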

Sequence	protein stability index (Saccharomyces cerevisiae [1]; [3])	protein stability index (Saccharomyces cerevisiae [1]; [4])	protein stability index (Saccharomyces cerevisiae [1]; [5])	protein stability index (Saccharomyces cerevisiae [1]; [6])	protein stability index (Saccharomyces cerevisiae [1]; [7])	protein stability index (Saccharomyces cerevisiae [1]; [8])	protein stability index (Saccharomyces cerevisiae [1]; [9])	protein stability index (Saccharomyces cerevisiae [2])
RGRLKSSYFILF	0.7 ± 0.032	0.7127 ± 0.0056	0.65 ± 0.013	0.7509 ± 0.0052	0.49 ± 0.0063	0.534 ± 0.047	0.671 ± 0.017	0.497 ± 0.074
WRAFVFYHHFLD	0.665 ± 0.042	0.718 ± 0.028	0.655 ± 0.039	0.699 ± 0.014	0.329 ± 0.029	0.363 ± 0.029	0.5863 ± 0.0019	0.441 ± 0.015
PLSDPLRVILIM	0.55 ± 0.016	0.633 ± 0.06	0.501 ± 0.0089	0.627 ± 0.014	0.188 ± 0.0023	0.22 ± 0.023	0.328 ± 0.017	0.443 ± 0.063
GLLFWSGVVSWV	0.2627 ± 0.0023	0.388 ± 0.058	0.243 ± 0.038	0.507 ± 0.0027	0.225 ± 0.0065	0.263 ± 0.038	0.504 ± 0.014	0.4 ± 0.0088
GVFVWVVFVCTM	0.145 ± 0.015	0.315 ± 0.029	0.198 ± 0.017	0.3718 ± 0.00094	0.167 ± 0.0025	0.201 ± 0.013	0.315 ± 0.028	0.268 ± 0.053
LAISTIQMFKRI	0.677 ± 0.049	0.718 ± 0.04	0.624 ± 0.017	0.718 ± 0.018	0.295 ± 0.021	0.327 ± 0.022	0.568 ± 0.038	0.38 ± 0.019
CNIYVLIIIKKY	0.1831 ± 0.00032	0.298 ± 0.036	0.192 ± 0.026	0.344 ± 0.076	0.157 ± 0.0082	0.164 ± 0.039	0.325 ± 0.049	0.266 ± 0.1
RLLCLARMRGLH	0.6854 ± 0.0031	0.714 ± 0.02	0.631 ± 0.068	0.728 ± 0.037	0.341 ± 0.036	0.337 ± 0.022	0.579 ± 0.024	0.396 ± 0.2
DFHLPWPVALVW	0.134 ± 0.02	0.144 ± 0.016	0.217 ± 0.018	0.277 ± 0.0039	0.188 ± 0.0067	0.208 ± 0.026	0.24 ± 0.013	0.387 ± 0.039
VSGVLRSMVRLQ	0.641 ± 0.044	0.7477 ± 0.0057	0.66 ± 0.034	0.736 ± 0.032	0.266 ± 0.017	0.324 ± 0.031	0.58 ± 0.03	0.453 ± 0.011
FLLSFFGLVFFW	0.39 ± 0.029	0.437 ± 0.0046	0.37 ± 0.018	0.446 ± 0.0048	0.397 ± 0.0073	0.374 ± 0.014	0.449 ± 0.024	0.397 ± 0.0048
VCLFRLVVFFPV	0.234 ± 0.039	0.335 ± 0.024	0.217 ± 0.021	0.426 ± 0.037	0.196 ± 0.02	0.222 ± 0.018	0.377 ± 0.014	0.349 ± 0.005
MIQPRLANIIIS	0.8517 ± 0.0056	0.864 ± 0.017	0.683 ± 0.018	0.833 ± 0.015	0.713 ± 0.024	0.6987 ± 0.0051	0.779 ± 0.017	0.753 ± 0.018
FLLLVVYVSLYS	0.143 ± 0.0068	0.207 ± 0.039	0.183 ± 0.033	0.2973 ± 0.00095	0.133 ± 0.0063	0.156 ± 0.032	0.224 ± 0.034	0.216 ± 0.1
IILGVRQIEVNS	0.488 ± 0.012	0.517 ± 0.031	0.358 ± 0.029	0.526 ± 0.021	0.323 ± 0.0071	0.373 ± 0.031	0.52 ± 0.0076	0.4447 ± 0.0033
AIPRWLALLVAH	0.32 ± 0.012	0.381 ± 0.0079	0.29 ± 0.032	0.4508 ± 0.0036	0.13 ± 0.018	0.159 ± 0.022	0.238 ± 0.0066	0.241 ± 0.0097
RSPVVVFAVLLF	0.438 ± 0.072	0.481 ± 0.034	0.341 ± 0.036	0.524 ± 0.016	0.35 ± 0.037	0.35 ± 0.029	0.505 ± 0.0057	0.423 ± 0.018
LLAVIVWIVPPA	0.241 ± 0.01	0.35 ± 0.0085	0.233 ± 0.023	0.423 ± 0.0079	0.204 ± 0.0016	0.222 ± 0.028	0.39 ± 0.0093	0.304 ± 0.042
VKSAVLLFFLVT	0.357 ± 0.0084	0.483 ± 0.019	0.359 ± 0.031	0.537 ± 0.0055	0.178 ± 0.016	0.199 ± 0.021	0.312 ± 0.01	0.257 ± 0.0044
